B1: Protein PTHB1 (Homo sapiens), Q3SYG4 (parent)
chain: MSLFKARDWWSTILGDKEEFDQGCLCLANVDNSGNGQDKIIVGSFMGYLRIFSPHPAKTGDGAQAEDLLLEVDLRDPVLQVEVGKFVSGTEMLHLAVLHSRKLCVYSVSGTLGNVEHGNQCQMKLMYEHNLQRTACNMTYGSFGGVKGRDLICIQSMDGMLMVFEQESYAFGRFLPGFLLPGPLAYSSRTDSFLTVSSCQQVESYKYQVLAFATDADKRQETEQQKLGSGKRLVVDWTLNIGEQALDICIVSFNQSASSVFVLGERNFFCLKDNGQIRFMKKLDWSPSCFLPYCSVSEGTINTLIGNHNNMLHIYQDVTLKWATQLPHIPVAVRVGCLHDLKGVIVTLSDDGHLQCSYLGTDPSLFQAPNVQSRELNYDELDVEMKELQKIIKDVNKSQGVWPMTEREDDLNVSVVVSPNFDSVSQATDVEVGTDLVPSVTVKVTLQNRVILQKAKLSVYVQPPLELTCDQFTFEFMTPDLTRTVSFSVYLKRSYTPSELEGNAVVSYSRPTDRNPDGIPRVIQCKFRLPLKLICLPGQPSKTASHKITIDTNKSPVSLLSLFPGFASQSDDDQVNVMGFHFLGGARITVLASKTSQRYRIQSEQFEDLWLITNELILRLQEYFEKQGVKDFACSFSGSIPLQEYFELIDHHFELRINGEKLEELLSERAVQFRAIQRRLLARFKDKTPAPLQHLDTLLDGTYKQVIALADAVEENQGNLFQSFTRLKSATHLVILLIALWQKLSADQVAILEAAFLPLQEDTQELGWEETVDAAISHLLKTCLSKSSKEQALNLNSQLNIPKDTSQLKKHITLLCDRLSKGGRLCLSTDAAAPQTMVMPGGCTTIPESDLEERSVEQDSTELFTNHRHLTAETPRPEVSPLQGVSE
partner: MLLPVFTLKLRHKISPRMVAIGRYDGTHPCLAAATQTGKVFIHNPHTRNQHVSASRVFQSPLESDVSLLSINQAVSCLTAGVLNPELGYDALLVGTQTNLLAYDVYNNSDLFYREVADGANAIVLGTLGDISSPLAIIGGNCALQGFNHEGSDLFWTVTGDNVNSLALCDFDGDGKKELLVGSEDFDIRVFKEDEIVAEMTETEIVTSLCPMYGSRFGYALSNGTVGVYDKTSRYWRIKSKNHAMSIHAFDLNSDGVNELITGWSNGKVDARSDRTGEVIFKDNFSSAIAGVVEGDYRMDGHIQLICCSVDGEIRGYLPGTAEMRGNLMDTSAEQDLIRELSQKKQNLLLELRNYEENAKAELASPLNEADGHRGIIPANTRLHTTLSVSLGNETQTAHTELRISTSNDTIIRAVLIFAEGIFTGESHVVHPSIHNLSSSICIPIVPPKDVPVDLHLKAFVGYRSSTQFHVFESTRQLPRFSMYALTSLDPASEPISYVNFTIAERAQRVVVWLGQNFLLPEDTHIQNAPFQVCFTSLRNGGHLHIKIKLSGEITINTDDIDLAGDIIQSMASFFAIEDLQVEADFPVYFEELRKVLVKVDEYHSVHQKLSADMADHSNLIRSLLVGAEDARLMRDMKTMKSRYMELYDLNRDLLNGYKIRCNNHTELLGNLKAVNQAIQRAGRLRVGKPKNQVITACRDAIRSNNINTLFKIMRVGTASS

Variants of: B1
Details: with bbs2_human BBS2, Q9BXC9

Variant | effect of a mutation on the interaction
T845K | with no effect
L815F | disrupting interaction strength
V424A | with no effect
L814E | with no effect
L779K | with no effect
F756A | with no effect
T805A | with no effect
W741L | disrupting interaction strength
W741K | with no effect
Q471E | with no effect
S723P | disrupting interaction strength
I738A | with no effect
L727A | with no effect
A832E | with no effect
S855E | with no effect
S855A | with no effect
T613E | with no effect
D422A | with no effect
E475K | with no effect
K803A | with no effect
I612E | with no effect
T512K | with no effect
C634K | with no effect

Variant | effect of a mutation on the interaction
D631A | with no effect
M839A | with no effect
Q447K | with no effect
E848A | with no effect
R824E | with no effect
L799E | with no effect
Q672K | with no effect
L737E | with no effect
Q835E | with no effect
S806K | with no effect
T702A | with no effect
T702C | disrupting interaction strength
K786A | with no effect
I751A | with no effect
T865A | with no effect
L680E | with no effect
R854A | with no effect
Q764E | with no effect
D804A | with no effect
I776E | with no effect
T697K | with no effect
L559E | with no effect
L559K | with no effect

Variant | effect of a mutation on the interaction
F580E | with no effect
L744E | with no effect
G767E | with no effect
P463E | with no effect
L560E | with no effect
S486E | with no effect
S486N | disrupting interaction strength
I676A | with no effect
T771A | with no effect
L662A | with no effect
L757A | with no effect
L709E | with no effect
L863A | with no effect
L863E | with no effect
E790K | with no effect
T589E | with no effect
Q605A | with no effect
C826K | with no effect
C826E | with no effect
T844K | with no effect
D686A | with no effect
L620E | with no effect
L620A | with no effect

Variant | effect of a mutation on the interaction
D773E | with no effect
T496E | with no effect
R669E | with no effect
H546A | with no effect
L562E | with no effect
L562A | with no effect
F487E | with no effect
L808K | with no effect
S593K | with no effect
N800E | with no effect
L465K | with no effect
G628A | with no effect
A708E | with no effect
S545K | with no effect
Y490A | with no effect
Q883A | with no effect
I640A | with no effect
Q807K | with no effect
Y645E | with no effect
S568E | with no effect
K661E | with no effect
W610A | with no effect
N515E | with no effect

From IntAct's records for PubMed 29039417
